Earlier results in paper PMC8985225.

Molecular target: CaMKII kinase domain (Caenorhabditis elegans) (UniProt O62305)

- Kd: > 100 µM
Substance: CaMKII kinase domain (from UniProt O62305)
